Kd data for one molecule are collected here from US20060183688A1 (LES LABORATORIES SERVIER, published 2006).

For orientation: Kd means the constant that tells how readily two partners part at equilibrium.

Experiment [1] concerns the target T1, fusion protein glutathione-S-transferase-Bcl-W (UniProt P08515 1-218 = GST; Q92843 1-171).
T1 construct: also called GST-Bcl-W
Nature of the experiment: fluorescence polarisation, 15 nM fluorescein-peptide, GST-Bcl-W titrated 1 nM to 5 uM. The protocol:
(§1) A 15 nM solution of the peptide obtained in Example 1 labelled with fluorescein at the N-terminal end is mixed with a solution containing the fusion protein GST-Bcl-XL or GST-Bcl-W at a concentration varying from 1 nM to 5 μM in a buffer containing Na₂HPO₄ 20 mM pH 7.4, EDTA 1 mM, NaCl 50 mM, pluronic acid F-68 0.05%. The fluorescence polarisation is then measured by the En Vision apparatus (Packard Perkin-Elmer).
A general note: Fluorescence polarisation rises when a labelled molecule tumbles more slowly, as on binding a larger partner.

Experiment [2] deals with T2, fusion protein glutathione-S-transferase-Bcl-XL (UniProt P08515 1-218 = GST; Q07817 1-209).
T2 construct: also called GST-Bcl-XL
T2 sequence (P08515 1-218, tags or fused parts left off): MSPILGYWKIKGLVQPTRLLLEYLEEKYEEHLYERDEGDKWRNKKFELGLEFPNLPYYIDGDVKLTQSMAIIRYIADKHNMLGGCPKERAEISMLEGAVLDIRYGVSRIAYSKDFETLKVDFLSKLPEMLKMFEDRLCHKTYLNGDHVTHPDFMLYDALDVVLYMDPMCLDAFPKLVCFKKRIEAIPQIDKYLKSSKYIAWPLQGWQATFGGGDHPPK
Nature of the experiment: fluorescence polarisation, 15 nM fluorescein-peptide, GST-Bcl-XL titrated 1 nM to 5 uM. The method, then: as §1

No end group written: not given here. fluorescein = fluorescein label at the N-terminal end

T1 sequence (P08515 1-218, tags or fused parts left off): as above

B1: peptide obtained in Example 1 labelled with fluorescein at the N-terminal end (peptide)
peptide: fluorescein-DTRRSMVFARHLREVGDEFRSR
notes: Used at 15 nM in fluorescence polarisation; also called ID; NO.1
Take B1: the Kd in experiment [1] was determined as 411 nM; in experiment [2], 215 nM.
